Source: paper PMC4980704

Molecular target: VEGF165 (human, UniProt P15692-4 27-191)
Assay: MST

TGTGGGGGTGGACGGGCCGGGTAGA (structured_DNA) [V7t1 (3'-Cy3)]
Kd: 75.9 ± 13 nM
